Measurements taken from patent publication US20220306690A1 (CURATORS OF THE UNIVERSITY OF MISSOURI, published 2022).

Tests used:
[1] = target: T1, HIV-1 capsid protein (CA) hexamer (HIV-1, UniProt O12157 131-361, fluorescently labeled with Alexa Fluor 647 analog NT647 (site of labeling not stated)); assay: MicroScale Thermophoresis (MST), 200 nM NT647-labelled CA-hexamers, Pep-2-cyclic titrated 1 nM to 2000 nM [B panel A]
T1 construct: also called CA-hexamers

[2] = target: T1, HIV-1 capsid protein (CA) hexamer; assay: MicroScale Thermophoresis; Kd of Pep-2-cyclic (32 nM) against Kd of small molecule PF74 ([…] nM) on CA-hexamers
[3] = target: T1, HIV-1 capsid protein (CA) hexamer; assay: MicroScale Thermophoresis; 200 nM NT647-labeled CA-hexamers, Pep-2-cyclic titrated 1 nM to 2000 nM; fit to quadratic equation

B1: Pep-2-cyclic: Cyc(SGVFTFGPVNFPG) (peptide)
peptide: SGVFTFGPVNFPG
modifications: head-to-tail cyclic: cyclized by coupling the C-terminal carboxylic acid and the N-terminal amino group
Question: What does the source list for B1?
Answer: EC50 (read off the curve) [1]: ~70 nM; fold greater affinity than PF74 [2]: ~7 fold; Kd [3]: 32 nM
